Measured values: US20070202552A1 (Genentech, published 2007)
Positions count from the first letter of the chain named.

B1: B16 (Fab, V domains shown)
VH: EVQLVESGGGLVQPGGSLRLSCAASGFSISYSYIHWVRQAPGKGLEWVASIYPYSGYTSYADSVKGRFTISADTSKNTAYLQMNSLRAEDTAVYYCARWWSSAFDYWGQGTLVTVSS
VL: DIQMTQSPSSLSASVGDRVTITCRASQDVNTAVAWYQQKPGKAPKLLIYSASSLYSGVPSRFSGSRSGTDFTLTISSLQPEDFATYYCQQYYYYPSTFGQGTKVEIK
B2: B17 (Fab, V domains shown)
VH: B1 VH with S28Y, S30Y, Y31S, A103G
VL: B1 VL with Y91S
B3: B18 (Fab, V domains shown)
VH: B1 VH with Y31S
VL: B1 VL with Y94S
B4: B20 (Fab, V domains shown)
VH: B1 VH with Y31S, F104L
VL: B1 VL with Y91S, Y94S
B5: B21 (Fab, V domains shown)
VH: B1 VH with S30Y, Y31S, W100S, A103G
VL: B1 VL with Y94S
B6: B22 (Fab, V domains shown)
VH: B1 VH with Y31S, F104M
VL: B1 VL with Y91S
B7: B23 (Fab, V domains shown)
VH: B1 VH with S28Y, F104L
VL: B1 VL with Y91S, Y94S
B8: B24 (Fab, V domains shown)
VH: B1 VH with F104L
VL: B1 VL with Y91S, Y94S
B9: B25 (Fab, V domains shown)
VH: EVQLVESGGGLVQPGGSLRLSCAASGFSISYSSIHWVRQAPGKGLEWVASIYPYYGYTYYADSVKGRFTISADTSKNTAYLQMNSLRAEDTAVYYCARFSFSSSSFAMDYWGQGTLVTVSS
VL: B1 VL with Y92S, S96Y
B10: B26 (Fab, V domains shown)
VH: B9 VH with M108I
VL: B1 VL with Y92S, Y93S, S96Y
B11: G30 (Fab, V domains shown)
VH: B1 VH with S30W, Y31W, Y33W, Y52S, Y54S, Y57W, F104L
VL: B1 VL with Y91S, Y92W, Y93W, Y94W
B12: G34 (Fab, V domains shown)
VH: B1 VH with S30W, Y31W, Y33W, Y52S, Y54S, Y57W
VL: B1 VL with Y91S, Y92W, Y93W, Y94W
B13: G58 (Fab, V domains shown)
VH: EVQLVESGGGLVQPGGSLRLSCAASGFYISYSSIHWVRQAPGKGLEWVASISPYSGYTYYADSVKGRFTISADTSKNTAYLQMNSLRAEDTAVYYCARSSYSYYYYSYALDYWGQGTLVTVSS
VL: B1 VL with Y91S, Y92S, Y93S, Y94S

What follows are binders tested against T1, human HER-2 extracellular domain (HER-2 ECD) (human, UniProt P04626 23-646) (assay: competitive Fab-phage ELISA).
T1 construct: range 23-646; also called erbB2; HER2 protein

| Binder | IC50 [nM] |
| --- | --- |
| B1 | 1.77 |
| B2 | 5.76 |
| B3 | 0.93 |
| B4 | 1.56 |
| B5 | 1.64 |
| B6 | 2.72 |
| B7 | 1.46 |
| B8 | 2.03 |
| B9 | 70.4 |
| B10 | > 100 |

What follows are binders tested against human IGF-1 (human) (UniProt P05019) (assay: specificity phage ELISA).

| Binder | ELISA signal at 450 nm |
| --- | --- |
| B11 | 0.29 |
| B12 | 0.35 |
| B13 | 0.36 |

Molecular target: T1, human HER-2 extracellular domain (HER-2 …)
Assay: competitive Fab-phage ELISA
Remark: another data set of the same source

| Binder | IC50 [nM] |
| --- | --- |
| B11 | 1.26 |
| B12 | 1.06 |
| B13 | 15.1 |
